Substrate: C[C@H](O)[C@H](N)C(=O)O
Assay: purified protein
Type: biochemical, Aeromonas jandaei
Conditions: 50 mM NaPi pH 8, 25 °C, 50 μM PLP

B1: LTAaj (L-threonine aldolase from Aeromonas jandaei; L-allo-threonine aldolase) (Aeromonas jandaei) (protein)
chain: MRYIDLRSDTVTQPTDAMRQCMLHAEVGDDVYGEDPGVNALEAYGADLLGKEAALFVPSGTMSNLLAVMSHCQRGEGAVLGSAAHIYRYEAQGSAVLGSVALQPVPMQADGSLALADVRAAIAPDDVHFTPTRLVCLENTHNGKVLPLPYLREMRELVDEHGLQLHLDGARLFNAVVASGHTVRELVAPFDSVSICLSKGLGAPVGSLLVGSHAFIARARRLRKMVGGGMRQAGILAQAGLFALQQHVVRLADDHRRARQLAEGLAALPGIRLDLAQVQTNMVFLQLTSGESAPLLAFMKARGILFSGYGELRLVTHLQIHDDDIEEVIDAFTEYLGA
notes: C-terminal His-tag, expressed in E. coli BL21(DE3), Ni-NTA purified, homotetramer, PLP-dependent
B1 was tested, and the Km was 0.5 mM, the kcat was 8.67 s⁻¹ and the kcat/Km was 17000 M⁻¹ s⁻¹.
